Reference: PMC8130932 (PLoS Pathogens, 2021)

Key:
[1] = target: T1, SARS-CoV-2 spike glycoprotein, full-length, prefusion-stabilised, on MDCK-SIAT1 cells (SARS-CoV-2, reference sequence, UniProt P0DTC2, 986KV987 to 986PP987 | 682RRAR685 to 682GSAG685); experiment: flow cytometry on cells; details: one partner purified
T1 construct: also called MDCK-Spike

[2] = target: T2, SARS-CoV-2 spike glycoprotein S1+S2 extracellular domain (SARS-CoV-2, reference sequence, UniProt P0DTC2); experiment: ELISA
T2 construct: also called full-length spike glycoprotein ectodomain

B1: FN 2C (antibody, V domains shown)
VH: EVQLLESGGGVVQPGRSLRLSCAASGFNFNNYGMHWVRQAPGKGLEWVATISYEGSKKFYVDSVKGRFTISKDNSKNTLYLQMNSLRVDDTAFYYCAKRREIFWLGEPPLSDAFDFWGQGTMVTVSS
VL: QSVLTQPPSVSGAPGQRVTISCTGSGSNIGAGYDVHWYQFLPGTAPQLLIYGNNNRPSGVPDRFSGSKSGTSASLAITGLQAEDEADYYCQSYDSSLSGSVFGGGTKLTVL
notes: source: HEK293T, transfected; culture supernatant or purified
binding result [1]: binds | OD450 [2]: 1.77 OD450

B2: EY 6A (antibody, V domains shown)
VH: EVQLVESGGGVVQPGRSLRLSCAASAFTFSSYDMHWVRQAPGKGLEWVAVISYDGSNKYYADSVKGRFTISRDNSKNTLYLQMNSLRAEDTAVYYCAKDGGKLWVYYFDYWGQGTLVTVSS
VL: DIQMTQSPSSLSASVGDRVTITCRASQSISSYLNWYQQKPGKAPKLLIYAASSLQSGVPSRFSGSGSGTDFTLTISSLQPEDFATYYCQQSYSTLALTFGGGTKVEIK
notes: as for B1
binding result [1]: binds | OD450 [2]: 1.75 OD450

B3: EW 9C (antibody, V domains shown)
VH: EVQLVESGGGVVQPGASLRLSCVASGFTFNNFGFHWVRQAPGKGLEWLAVISYEGSKTYYAESLKGRFTISRDTSKNTVYLQMNSLRAEDTAVYYCARATSIFWFGEGRNWFDPWGQGTMVTVSS
VL: EIVLTQSPGTVSLSAGERATLSCRASQNVGTDLAWYVQRPGQAPRLLIYDTSNKATGIPARFSGRGSGTDFTLTIDSLEPEDFAVYYCQQRSNWPLTFGGGTKVEIR
notes: as for B1
binding result [1]: binds | OD450 [2]: 1.22 OD450

B4: FB 1E (antibody, V domains shown)
VH: EVQLVESGAEVKKPGESLKISCQGSGYRFNSYWIAWVRQMPGKGLEWMGSIFPTDSDIRYNPSFQGQVTISADKSISIAYLQWSSLKASDTAIYYCARHWASMVRGVIRASHYYGMDVWGQGTTVTVSS
VL: QSVLTQPPSASGSPGQSVTISCSGASSDIGDYNYVSWYQQLPGKAPKLLIYEVTKRPSGVPDRFSGSKSGNTASLTVSGLQADDEADYYCSSYAFGGSDIRVFGGGTKLAVL
notes: as for B1
binding result [1]: binds | OD450 [2]: 1.4 OD450

B5: FB 9D (antibody, V domains shown)
VH: QVQLVESGAEVKKPGESLKISCQGSGYRFNSYWIAWVRQMPGKGLEWMGSIFPTDSDVRYNPSFQGQVTISADKSISFAYLQWSSLKASDTAIYYCARHWASMVRGVIRASHYYGMDVWGQGTTVTVSS
VL: QPVLTQPPSASGSPGQSVTISCSGASSDIGKYNYVSWYQQLPGKAPKLLIYEVTKRPSGVPDRFSGSKSGNTASLTVSGLQADDEADYYCSSYAFGGSDTRVFGGGTKLTVL
notes: as for B1
binding result [1]: binds | OD450 [2]: 1.43 OD450

B6: FD 5E (antibody, V domains shown)
VH: EVQLVESGGVVVQPGGSLRLSCAASGFTFDDYAMHWVRQAPGKGLEWVSLISWDGGSTYYADSVKGRFTISRDNSKNSLYLQMNSLRAEDTALYYCAKDSVRFRYYYGMDVWGQGTTVTVSS
VL: EIVLTQSPATLSLSPGERATLSCRASQSVSSYLAWYQQKPGQAPRLLIYDASNRATGIPARFSGSGSGTDFTLTISSLEPEDFAVYYCQQRSNWPLTFGPGTKVDIK
notes: as for B1
binding result [1]: binds | OD450 [2]: 0.34 OD450

B7: FI 1C (antibody, V domains shown)
VH: EVQLVESGGGLVKPGGSLRLSCAASGFTFSDYYMSWIRQAPGKGLEWVSYISSSGSTIYYADSVKGRFTISRDNAKNSLYLQMNSLRAEDTAVYYCARRSNRFLIAFDIWGQGTMVTVSS
VL: QSALTQPASVSGSPGQTITISCTGTSSDVGGYNYVSWYQQHPGKAPKLMIYEVSNRPSGVSNRFSGSKSGNTASLTISGLQAEDEADYYCSSYTSSSTLVVFGGGTKLTVP
notes: as for B1
binding result [1]: binds | OD450 [2]: 1.88 OD450

B8: FI 4A (antibody, V domains shown)
VH: EVQLVESGGGLVKPGGSLRLSCAASGFTFSRFSMNWVRQAPGKGLEWVSSISSSGSYIYFADSVKGRFTISRDNAKNSLYLQMNSLRAEDTAIYYCATYLFGDSHTYWGQGTLVTVSS
VL: QSVLTQPHSVSESPGKTVTISCTGSSGSIASNYVQWYQQRPGSAPTTVIYEDNQRPSGVPDRFSGSIDSSSNSASLTISGLKTEDEADYYCQSYDSSNLHWVFGGGTKLTVL
notes: as for B1
binding result [1]: binds | OD450 [2]: 1.68 OD450

B9: FM 7B (antibody, V domains shown)
VH: EVQLVQSGAEVKKPGASVKVSCKASGYTFTSYAMHWVRQAPGQRLEWMGWINTGNGNTKYSQKFQGRVTITRDTSASTAYMELSSLRSEDTAVYYCARDPTYCSSTSCYPFSWFDPWGQGTLVTVSS
VL: NFMLTQPPSVSVAPGQTARITCGGNNIGSKSVHWYQQKPGQAPVLVVYDDSDRPSGIPERFSGSNSGNTATLTISRVEAGDEADYYCQVWDSTGDHSWVFGGGTKLTVL
notes: as for B1
binding result [1]: binds | OD450 [2]: 1.8 OD450

B10: FD 7C (antibody, V domains shown)
VH: QLQLQESGPGLVKPSETLSLTCTVSGGSISSYYWSWIRQPPGKGLEWIGYIYYSGSTNYNPSLKSRVTISVDTSKNQFSLKLSSVTAADTAVYYCARDYRFGELFGRFAWFDPWGQGTLVTVSS
VL: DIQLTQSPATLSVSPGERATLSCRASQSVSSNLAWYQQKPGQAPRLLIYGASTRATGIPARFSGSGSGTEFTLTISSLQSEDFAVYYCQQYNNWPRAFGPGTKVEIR
notes: as for B1
binding result [1]: binds | OD450 [2]: 1.9 OD450

B11: EZ 7A (antibody, V domains shown)
VH: EVQLVESGAEVKKPGESLKISCKGSGYSFTSYWIGWVRQMPGKGLEWMGIIYPGDSDTRYSPSFQGQVTISADKSISTAYLQWSSLKASDTAMYYCARGWVYRGFPYYGMDVWGQGTMVTVSS
VL: QSALTQPRSVSGSPGQSVTISCTGTSSDVGGYNYVSWYQQHPGKAPKLMIYDVSKRPSGVPDRFSGSKSGNTASLTISGLQAEDEADYYCCSYAGSYTLVFGGGTKLTVL
notes: as for B1
binding result [1]: binds | OD450 [2]: 1.66 OD450
